Assay results taken from paper PMC6626044, “Molecular basis of egg coat cross-linking sheds light on ZP1-associated female infertility” (Nature Communications, 2019).
Positions count from the first letter of the chain named. Blank lines part the entries; values can stand above or below the molecule they belong to.

Experiments:
[1] = molecular target: chicken ZP1 ZP-N1 domain, recombinant, wild type (chicken); assay: SEC; IMAC-purified protein, analytical SEC at 4 °C in 20 mM Na-HEPES pH 7.8, 150 mM NaCl (HiLoad 26/600 Superdex 75 pg or Superdex 75 Increase 10/300 GL), fractions on Coomassie-stained SDS-PAGE
[2] = molecular target: chicken ZP1 ZP-N1 domain, recombinant, wild type (chicken); assay: non-reducing against reducing SDS-PAGE with immunoblot; conditioned medium of transfected HEK293 cells, anti-5His immunoblot; shows only covalent (disulphide-bonded) oligomers
[3] = molecular target: chicken ZP1, full length, 6His-tagged (chicken); assay: as above
[4] = molecular target: chicken ZP4 ZP-N1 domain, 6His-tagged (chicken); assay: SEC; IMAC-purified protein, analytical SEC at 4 °C in 20 mM Na-HEPES pH 7.8, 150 mM NaCl (HiLoad 26/600 Superdex 75 pg or Superdex 75 Increase 10/300 GL), fractions on Coomassie-stained SDS-PAGE
[5] = molecular target: ~21 kDa N-terminal fragment of native chicken ZP1 (chicken); assay: non-reducing against reducing SDS-PAGE with immunoblot; SEC fractions (Sephacryl S-300 HR) of chicken egg coat solubilised by sperm protease, anti-cZP1 N-terminal fragment polyclonal; bands confirmed by MALDI-MS/MS
[6] = molecular target: the molecule itself; assay: non-reducing against reducing SDS-PAGE with immunoblot; conditioned medium of transfected HEK293 cells, anti-5His immunoblot; shows only covalent (disulphide-bonded) oligomers
[7] = molecular target: the molecule itself; assay: SEC; IMAC-purified protein, analytical SEC at 4 °C in 20 mM Na-HEPES pH 7.8, 150 mM NaCl (HiLoad 26/600 Superdex 75 pg or Superdex 75 Increase 10/300 GL), fractions on Coomassie-stained SDS-PAGE

stoichiometry N [1]: 2 | stoichiometry N [2]: 2
Molecule: chicken ZP1 ZP-N1 domain, recombinant, wild type (domain or fragment)

stoichiometry N [3]: 2
Molecule: chicken ZP1, full length, 6His-tagged (natural protein)

stoichiometry N [4]: 2
Molecule: chicken ZP4 ZP-N1 domain, 6His-tagged (from UniProt A0A8V0ZLW5 1-148) (domain or fragment)

stoichiometry N [5]: 2
Molecule: ~21 kDa N-terminal fragment of native chicken ZP1 (domain or fragment)

B1: human ZP1, wild type, 6His-tagged (natural protein, UniProt P60852 26-553, looked up)
chain: RWLQPDPGLPGLRHSYDCGIKGMQLLVFPRPGQTLRFKVVDEFGNRFDVNNCSICYHWVTSRPQEPAVFSADYRGCHVLEKDGRFHLRVFMEAVLPNGRVDVAQDATLICPKPDPSRTLDSQLAPPAMFSVSTPQTLSFLPTSGHTSQGSGHAFPSPLDPGHSSVHPTPALPSPGPGPTLATLAQPHWGTLEHWDVNKRDYIGTHLSQEQCQVASGHLPCIVRRTSKEACQQAGCCYDNTREVPCYYGNTATVQCFRDGYFVLVVSQEMALTHRITLANIHLAYAPTSCSPTQHTEAFVVFYFPLTHCGTTMQVAGDQLIYENWLVSGIHIQKGPQGSITRDSTFQLHVRCVFNASDFLPIQASIFPPPSPAPMTQPGPLRLELRIAKDETFSSYYGEDDYPIVRLLREPVHVEVRLLQRTDPNLVLLLHQCWGAPSANPFQQPQWPILSDGCPFKGDSYRTQMVALDGATPFQSHYQRFTVATFALLDSGSQRALRGLVYLFCSTSACHTSGLETCSTACSTGTTRQ
notes: human zona pellucida glycoprotein 1 (hZP1), wild type, synthetic cDNA in pHLsec3; the secreted form in the medium was analysed; also called hZP1; full-length hZP1; source: HEK293T, transiently transfected, secreted into the conditioned medium
stoichiometry N [6]: 2

B2: mouse ZP1 ZP-N1 domain, 6His-tagged, wild type (domain or fragment, UniProt Q62005 21-141, looked up)
chain: QRLHLEPGFEYSYDCGVRGMQLLVFPRPNQTVQFKVLDEFGNRFEVNNCSICYHWVTSEAQEHTVFSADYKGCHVLEKDGRFHLRVFIQAVLPNGRVDIAQDVTLICPKPDHTVTPDPYLA
notes: signal peptide in the construct; mouse ZP1 ZP-N1 domain, M1-A141, in pHLsec3; Heterogeneous glycosylation at N49 and N68 gives two bands on SDS-PAGE; also called mZP1-N1; mZP1-N1_(M1-A141); source: HEK293, transiently transfected; conditioned medium, and purified (IMAC, SEC); not shown: 6His, C-terminal, kept
stoichiometry N [7]: 2

B3: human ZP1 ZP-N1 domain, H102 mutant (domain or fragment)
chain: RWLQPDPGLPGLRHSYDCGIKGMQLLVFPRPGQTLRFKVVDEFGNRFDVNNCSICYHWVTSRPQEPAVFSADYRGCAVLEKDGRFHLRVFMEAVLPNGRVDVAQDATLICPKPDPSRTLDSQLA
stoichiometry N [6]: 2

B4: human ZP1 ZP-N1 domain, His-tagged, wild type (domain or fragment, UniProt P60852 26-149, looked up)
chain: B3 chain with A77H
notes: signal peptide in the construct; human ZP1 ZP-N1 domain, M1-A149; also called hZP1-N1; hZP1_(M1-A149); source: HEK293T, transiently transfected; conditioned medium, and purified (IMAC, SEC); not shown: His, C-terminal, kept
stoichiometry N [6]: 2

B5: human ZP1 ZP-N1 domain, H82 mutant (domain or fragment)
chain: B3 chain with H57A, A77H
stoichiometry N [6]: 2
